Residue numbers refer to the chain shown, from its start.
Tests used:
[1] = molecular target: T1, 1N mutant: E1R2EE345L linker EE12RR345L membrane-bound construct; assay: FLAG staining of co-transduced C1498 cells, flow cytometry (FIG. 20)
T1 chain: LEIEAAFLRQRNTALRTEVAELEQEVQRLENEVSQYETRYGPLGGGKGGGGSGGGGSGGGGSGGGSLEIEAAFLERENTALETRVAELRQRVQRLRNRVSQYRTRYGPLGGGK
Description: (§1) C1498 cells were co-transduced with the FLAG-RR12EE345L GFP vector and one of the six mutants as part of RR12EE345L linker EE12RR345L BFP vector constructs. […] Thus, mutating the […] leucine zipper at “g” position residues to include repulsive amino acid interactions can reduce the degree of blocking by the linked […]-based mutant leucine zipper.

[2] = molecular target: T2, 1M mutant: RR123E45L linker EE12RR345L membrane-bound construct; assay: as above
T2 chain: T1 chain with E4R, E18R
Description: as §1

[3] = molecular target: T3, 2N mutant: EE12345L linker EE12RR345L membrane-bound construct; assay: as above
T3 chain: T1 chain with R11E
Description: as §1

[4] = molecular target: T4, 2M mutant: RR1234E5L linker EE12RR345L membrane-bound construct; assay: as above
T4 chain: T1 chain with E4R, E18R, E25R
Description: as §1

[5] = molecular target: T5, 3N mutant: EE12R3E45L linker EE12RR345L membrane-bound construct; assay: as above
T5 chain: T1 chain with R11E, E18R
Description: as §1

[6] = molecular target: T6, 3C mutant: RR12345L linker EE12RR345L membrane-bound construct; assay: as above
T6 chain: T1 chain with E4R, E18R, E25R, E32R
Description: as §1

[7] = molecular target: T7, RR12EE345L linker EE12RR345L CD80 (mouse (CD80 part, SEQ ID NO: 111)); assay: co-transduced T cells sorted with anti-FLAG magnetic beads (FIG. 21A)
T7 construct: left out; Expressed on T cells from a vector that also carries the CD20-streptag-CAR; also called CD80 functionalized leucine zipper
T7 chain: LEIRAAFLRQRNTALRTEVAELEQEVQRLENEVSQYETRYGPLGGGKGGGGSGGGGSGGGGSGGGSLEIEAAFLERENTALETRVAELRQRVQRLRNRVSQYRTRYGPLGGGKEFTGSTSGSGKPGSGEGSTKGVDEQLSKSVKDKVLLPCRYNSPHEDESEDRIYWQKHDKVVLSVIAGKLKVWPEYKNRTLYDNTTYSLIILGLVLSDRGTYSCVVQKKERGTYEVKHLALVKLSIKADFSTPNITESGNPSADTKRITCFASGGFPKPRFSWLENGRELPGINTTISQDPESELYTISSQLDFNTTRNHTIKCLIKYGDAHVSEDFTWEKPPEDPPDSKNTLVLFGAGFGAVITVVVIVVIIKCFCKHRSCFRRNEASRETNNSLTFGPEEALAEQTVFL
Description: T cells were transduced with vectors encoding (a) FLAG-RR12EE345L iCaspase9 CD19-myc-CAR and (b) RR12EE345L linker EE12RR345L CD80 CD20-streptag-CAR. Next, cells were magnetically sorted with anti-FLAG magnetic beads.

[8] = molecular target: T8, R2-EE12RR345L CD28-9c delta; assay: double-transduced C1498 cells sorted with CD34 beads by the captured Q2 zipper (FIG. 19)
T8 construct: also called tandem circular CD20 mimotope-tagged capture leucine zipper
T8 chain: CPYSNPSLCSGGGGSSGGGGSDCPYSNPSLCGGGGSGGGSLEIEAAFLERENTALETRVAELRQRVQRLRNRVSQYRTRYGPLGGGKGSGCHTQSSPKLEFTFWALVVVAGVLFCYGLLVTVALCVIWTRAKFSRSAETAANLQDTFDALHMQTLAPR
Procedure: Next, the cells were magnetically sorted with CD34 beads. Subsequently, the cells were incubated with antibodies in the presence of complement.

Measured: binding result

B1: FLAG-RR12EE345L leucine zipper (secreted, affinity-tagged) (designed binder)
chain: DYKDDDDKLEIRAAFLRQRNTALRTEVAELEQEVQRLENEVSQYETRYGPLGGGK
notes: also called RR12EE345L-FLAG
not listed: [8]
binds: all other assays above

B2: Q2-RR12EE345L (designed binder)
chain: GSGELPTQGTFSNVSTNVSGGGGSGGGSELPTQGTFSNVSTNVSGGGGSGGGSALGLEIRAAFLRQRNTALRTEVAELEQEVQRLENEVSQYETRYGPLGGGK
binds: [8]

Source: patent publication US20210179686A1 (Memorial Sloan Kettering, published 2021)
